Article PMC2791223

Key:
Experiment in all cases: pull-down; partially purified recombinant proteins mixed and incubated overnight at 4°C, GSTrap columns, washed with 50 mM Tris pH 7.5, 150 mM NaCl, eluted with 10 mM reduced glutathione; Western blot with anti-His6 antibody, bands quantified with Image J, pulldown by GST-CD-Nef set to 100%
[1] = target: GST-MHC-I CD-Nef (human | HIV-1) (UniProt P03406)
[2] = target: GST-CD(Y320A)-NefLL/AA (human | HIV-1) (UniProt P03406)
[3] = target: GST-CD-Nef E62-65A,LL/AA (human | HIV-1) (UniProt P03406)
[4] = target: GST-CD-Nef M20A,LL/AA (human | HIV-1) (UniProt P03406)
[5] = target: GST-CD-Nef P78A,LL/AA (human | HIV-1) (UniProt P03406)
[6] = target: GST-MHC-I CD-Nef LL/AA (human | HIV-1) (UniProt P03406)

“truncated μ1 mutant V392A/L395A (domain or fragment)” was tested, and the pulldown efficiency (% of the pulldown of wild-type μ1 by GST-CD-Nef) [1] was 24%.

Work on “truncated μ1 mutant F172A/D174S (domain or fragment)” yielded a pulldown efficiency (% of the pulldown of wild-type μ1 by GST-CD-Nef) [1] of 57%.

B1: μ121 (AP-1 medium subunit μ1, residues 121–423) (domain or fragment)
chain: GYPQTTDSKILQEYITQEGHKLETGAPRPPATVTNAVSWRSEGIKYRKNEVFLDVIEAVNLLVSANGNVLRSEIVGSIKMRVFLSGMPELRLGLNDKVLFDNTGRGKSKSVELEDVKFHQCVRLSRFENDRTISFIPPDGEFELMSYRLNTHVKPLIWIESVIEKHSHSRIEYMVKAKSQFKRRSTANNVEIHIPVPNDADSPKFKTTVGSVKWVPENSEIVWSVKSFPGGKEYLMRAHFGLPSVEAEDKEGKPPISVKFEIPYFTTSGIQVRYLKIIEKSGYQALPWVRYITQNGDYQLRTQ
Molecule B1 has a pulldown efficiency (% of the pulldown of μ1 by GST-CD-Nef) [2] of 16%, a pulldown efficiency (% of the pulldown of μ1 by GST-CD-Nef) [3] of 30% and a pulldown efficiency (% of the pulldown of μ1 by GST-CD-Nef) [4] of 53%. The pulldown efficiency (% of the pulldown of μ1 by GST-CD-Nef) [5] was 19% and the pulldown efficiency (% of the pulldown of μ1 by GST-CD-Nef) [6] was 77%.
